From US6642040B2, “Human cGMP-stimulated cyclic nucleotide phosphodiesterase” (The Board of Regents of the University of Washington, priority 1991, dated 2003)

Key:
[1] = test system: yeast host strain YKS45; experiment: Yeast heat shock phenotype complementation, strain YKS45; assay type: cell-based, S. cerevisiae; conditions: YKS45, 56° C. for 10, 20, 30 and 45 minutes
Description: The host cells used in these procedures were S. cerevisiae yeast strains 10DAB (ATCC accession No. 74049) and YKS45, both of which were pde^1- pde^2- resulting in a phenotype characterized by heat shock sensitivity, i.e., the inability of cells to survive exposure to elevated temperatures on the order of 55-56° C. In these complementation procedures, the inserted gene product was noted to conspicuously modify the heat shock phenotype.
In a like manner, plasmid pHcgs6n (Example VI) was transformed into yeast host strain YKS45 by lithium acetate transformation. Heat shock analysis was performed as above except that the plates were initially grown two days at 30° C. and the warmed plates were maintained at 56° C. for 10, 20, 30 and 45 minutes.

[2] = test system: cyclic AMP and cyclic GMP hydrolysis; experiment: Phosphodiesterase assay of yeast cell extracts, second method of part D; assay type: biochemical, human; conditions: extracts of YKS45
Description: YKS45 transformed with plasmid pHcgs6n were grown in SC-leu medium to 1-2×10^7 cells/ml. The cells were harvested by centrifugation and the cell pellets were frozen. A frozen cell pellet, typically containing 10^10 cells, was mixed with lysis buffer (25 mM Tris HCl pH 8, 5 mM EDTA, 5 mM EGTA, 1 mM o-phenathroline, 0.5 mM AEBSF, 0.01 mg/mL pepstatin, 0.01 mg/mL leupeptin, 0.01 mg/mL aprotinin, 0.1% 2-mercaptoethanol) to bring the total volume to 2.5 ml. The mixture was thawed on ice and then added to an equal volume of glass beads. The cells were disrupted by cycles of vortexing and chilling on ice, then additional lysis buffer was mixed with the disrupted cells to bring the total lysis buffer added to 5 ml. The suspension was centrifuged for 5 min. at 12,000× g. The supernatant was removed and either assayed immediately or frozen rapidly in a dry ice ethanol bath and stored at −70° C.
Phosphodiesterase activity was assayed by mixing an aliquot of cell extract in (40 mM Tris-Cl pH 8.0, 1.mM EGTA, 0.01 mg/mL BSA) containing 5 mM MgCl2 and radioactive substrate, incubating at 30° C. for up to 30 min. and terminating the reaction with stop buffer (0.1 M ethanolamine pH 9.0, 0.5M ammonium sulfate, 10 mM EDTA, 0.05% SDS final concentration). […] The radioactive product was measured by scintillation counting.

B1: pHcgs6n: yeast expression plasmid with coding region of human cGS-PDE (SEQ ID NO: 45) (protein)
chain: MGQACGHSILCRSQQYPAARPAEPRGQQVFLKPDEPPPPPQPCADSLQDALLSLGSVIDISGLQRAVKEALSAVLPRVETVYTYLLDGESQLVCEDPPHELPQEGKVREAIISQKRLGCNGLGFSDLPGKPLARLVAPLAPDTQVLVMPLADKEAGAVAAVILVHCGQLSDNEEWSLQAVEKHTLVALRRVQVLQQRGPREAPRAVQNPPEGTAEDQKGGAAYTDRDRKILQLCGELYDLDASSLQLKVLQYLQQETRASRCCLLLVSEDNLQLSCKVIGDKVLGEEVSFPLTGCLGQVVEDKKSIQLKDLTSEDVQQLQSMLGCELQAMLCVPVISRATDQVVALACAFNKLEGDLFTDEDEHVIQHCFHYTSTVLTSTLAFQKEQKLKCECQALLQVAKNLFTHLDDVSVLLQEIITEARNLSNAEICSVFLLDQNELVAKVFDGGVVDDESYEIRIPADQGIAGHVATTGQILNIPDAYAHPLFYRGVDDSTGFRTRNILCFPIKNENQEVIGVAELVNKINGPWFSKFDEDLATAFSIYCGISIAHSLLYKKVNEAQYRSHLANEMMMYHMKVSDDEYTKLLHDGIQPVAAIDSNFASFTYTPRSLPEDDTSMAILSMLQDMNFINNYKIDCPTLARFCLMVKKGYRDPPYHNWMHAFSVSHFCYLLYKNLELTNYLEDIEIFALFISCMCHDLDHRGTNNSFQVASKSVLAALYSSEGSVMERHHFAQAIAILNTHGCNIFDHFSRKDYQRMLDLMRDIILATDLAHHLRIFKDLQKMAEVGYDRNNKQHHRLLLCLLMTSCDLSDQTKGWKTTRKIAELIYKEFFSQGDLEKAMGNRPMEMMDREKAYIPELQISFMEHIAMPIYKLLQDLFPKAAELYERVASNREHWTKVSHKFTIRGLPSNNSLDFLDEEYEVPDLDGTRAPINGCCSLDAE
[1]
  heat shock phenotype of transformed yeast: resistant to thermal pulse
[2]
  hydrolysis of cyclic AMP and cyclic GMP by cell extracts: hydrolyzed both cyclic AMP and cyclic GMP
